This is an account of results in article PMC10182070, “Ligand dependent interaction between PC-TP and PPARδ mitigates diet-induced hepatic steatosis in male mice” (Nature Communications, 2023).

One may read the Kd as the constant that tells how readily two partners part at equilibrium. High values mean weaker binding, low ones tighter binding.

Changes are numbered by the printed parent chain. Numbers in names are those of the source.

Experiment [1] has as its target T1, purified PPARδ ligand-binding domain (LBD), Cy5-labelled (human, Cy5 fluorophore (NHS) on lysine amines).
T1 chain: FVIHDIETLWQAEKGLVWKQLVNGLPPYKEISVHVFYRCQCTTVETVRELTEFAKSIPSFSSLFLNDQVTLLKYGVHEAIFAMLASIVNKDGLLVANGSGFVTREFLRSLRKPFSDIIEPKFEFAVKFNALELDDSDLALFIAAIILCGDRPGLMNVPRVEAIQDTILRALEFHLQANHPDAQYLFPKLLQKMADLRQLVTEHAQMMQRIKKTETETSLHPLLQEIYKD

Experiment [2] has as its target T2, purified full-length PPARδ, Cy5-labelled (human, UniProt Q03181 1-441, Cy5 fluorophore (NHS) on lysine amines).
T2 construct: Full-length PPARδ in PSMT3 vector; also called FL-PPARδ; full-length (FL) PPARδ; source: E. coli BL21 DE3, purified (IMAC, Capto S and Capto Q, Superdex 75 SEC)
T2 sequence (looked up): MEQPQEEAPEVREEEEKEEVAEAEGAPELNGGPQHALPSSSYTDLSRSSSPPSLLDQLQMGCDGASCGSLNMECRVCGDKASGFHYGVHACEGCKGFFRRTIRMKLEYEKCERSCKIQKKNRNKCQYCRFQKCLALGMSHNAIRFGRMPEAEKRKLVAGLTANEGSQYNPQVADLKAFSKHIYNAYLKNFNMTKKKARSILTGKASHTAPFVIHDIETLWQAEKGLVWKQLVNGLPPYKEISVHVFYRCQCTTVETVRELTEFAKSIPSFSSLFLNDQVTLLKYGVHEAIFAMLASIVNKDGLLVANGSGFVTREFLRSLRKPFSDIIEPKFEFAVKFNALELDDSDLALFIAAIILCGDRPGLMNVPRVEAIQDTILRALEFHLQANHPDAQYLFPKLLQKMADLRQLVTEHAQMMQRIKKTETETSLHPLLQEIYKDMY
In words: temperature related intensity change (TRIC); 50 nM Cy5-labelled FL-PPARδ or PPARδ LBD with LTPs (10 µM-610 pM), overnight at 4 °C; 20 mM Hepes pH 8.3, 200 mM NaCl, 5% glycerol, 0.05% tween-20, 0.5 mM TCEP; Dianthus NT.23 Pico. Conditions: both partners purified.

For experiment [3], the target named is T3, full-length PPARδ, split nano-luciferase (nano-PCA) fusion (human, UniProt Q03181 1-441).
T3 construct: wild-type human PPARδ, printed as residues 1-470; The clones of the HEK293T screen are not described; also called FL-PPARδ; intact PPARδ; source: HEK293T (screen) and Huh7, transfected, in cells
T3 sequence (looked up): T2 sequence (looked up)
Kind of experiment: split reporter (BiFC, NanoBiT); nano-PCA in transfected Huh7 cells (100 ng/well of each fusion); fresh culture media or DMEM F-12 with 0.5% serum (mutant panel in 0.5% serum); signal normalized to the highest negative control. Conditions: partners not purified.

B1: purified PC-TP (natural protein, human)
chain: MELAAGSFSEEQFWEACAELQQPALAGADWQLLVETSGISIYRLLDKKTGLYEYKVFGVLEDCSPTLLADIYMDSDYRKQWDQYVKELYEQECNGETVVYWEVKYPFPMSNRDYVYLRQRRDLDMEGRKIHVILARSTSMPQLGERSGVIRVKQYKQSLAIESDGKKGSKVFMYYFDNPGGQIPSWLINWAAKNGVPNFLKDMARACQNYLKKT
notes: PC-TP coding region in pMCSG7; the structure of PC-TP solved here is PDB 7U9D; 0.01% soy lecithin was added to the cultures at induction; also called LTP; source: E. coli BL21 DE3, purified (IMAC, Superdex 75 SEC)
On to B1, for which the values for the Kd in experiment [1] and in experiment [2] were 4.23 µM and roughly 2.4 µM, respectively.

B2: PC-TP R120H, split nano-luciferase (nano-PCA) fusion (natural protein, human, UniProt Q9UKL6 1-214, looked up)
chain: B1 chain with R120H
notes: source: Huh7, transfected, in cells
Regarding B2, the “percent decrease of the interaction relative to wild-type PC-TP” value in experiment [3] is roughly 45%.

B3: PC-TP R78E, split nano-luciferase (nano-PCA) fusion (natural protein, human, UniProt Q9UKL6 1-214, looked up)
chain: B1 chain with R78E
notes: as for B2
With B3, the “percent decrease of the interaction relative to wild-type PC-TP” value in experiment [3] was roughly 45%.

B4: PC-TP Y114R, split nano-luciferase (nano-PCA) fusion (natural protein, human, UniProt Q9UKL6 1-214, looked up)
chain: B1 chain with Y114R
notes: as for B2
As to B4, in experiment [3], the “percent decrease of the interaction relative to wild-type PC-TP” value was roughly 45%.
